Data as given in patent US20240165226A1, “COMBINATION TREATMENT OF CD38-EXPRESSING TUMORS” (GENMAB A/S, priority 2006, published 2024).

Tests used:
[1] = biological target: T1, CD38-transfected CHO (CHO-CD38) cells (Homo sapiens, UniProt P28907); experiment: Binding to CD38-transfected CHO cells by flow cytometry; conditions: for binding to CHO-CD38 cells: in words
T1 construct: expressed in transfected cells; host or cells: CHO cells
Procedure: (§1) After harvesting and counting, Daudi-luc cells, CHO cells transfected with CD38 and control CHO cells were resuspended in PBS (1×10^6 cells/ml). Then, cells were put in 96-well V-bottom plates (100 μl/well) and washed twice in PBS-BSA (PBS supplemented with 0.1% BSA and 0.02% Na-azide). Thereafter, 50 μl antibody solution in PBS-BSA was added to the cells (4° C., 30 min). After washing three times in PBS-BSA, 50 μl (1:400 dilution) of rabbit anti-human IgG-FITC in PBS-BSA was added (4° C. in the dark, 30 min). Cells were washed three times and specific binding of CD38-antibodies to CHO-CD38 and Daudi-luc cells was detected by flow cytometry. HuMab-KLH (a human monoclonal antibody against KLH (keyhole limpet haemocyanin) generated by Genmab B.V., Utrecht, The Netherlands by use of the immunization protocols described elsewhere herein) was used as a control. […] No binding to control CHO cells is observed (data not shown).

[2] = test system: Daudi-luc cells; experiment: Binding to Daudi-luc cells by flow cytometry; conditions: for binding to Daudi-luc cells: in words
Procedure: as §1

[3] = test system: fresh multiple myeloma tumor cells; experiment: ADCC (51Cr release) of fresh multiple myeloma tumor cells; type: cell-based, human; conditions: in words
Procedure: Daudi-luc cells, fresh multiple myeloma tumor cells, fresh Plasma Cell Leukemia tumor cells and JK6L and AMO-1 multiple myeloma cells were collected (5×10^6 cells) in RPMI^++ (RPMI 1640 culture medium supplemented with 10% cosmic calf serum (HyClone, Logan, UT, USA)), to which 100 μCi ^51Cr (Chromium-51; Amersham Biosciences Europe GmbH, Roosendaal, The Netherlands) was added, and the mixture was incubated in a 37° C. water bath for 1 hr. After washing of the cells (twice in PBS, 1500 rpm, 5 min), the cells were resuspended in RPMI^++ and counted by trypan blue exclusion. Cells were brought at concentration of 1×10^5 cells/ml.
Fresh peripheral blood mononuclear cells (healthy volunteers, UMC Utrecht, Utrecht, The Netherlands) were isolated from 40 ml of heparin blood by Ficoll (Bio Whittaker; lymphocyte separation medium, cat 17-829E) according to the manufacturer's instructions. After resuspension of cells in RPMI^++, cells were counted by trypan blue exclusion and brought at concentration of 1×10^7 cells/ml.
50 μl of ^51Cr-labeled targets cells were pipetted into 96-well plates, and 50 μl of antibody was added, diluted in RPMI^++ (final concentrations 10, 1, 0.1, 0.01 μg/ml). […] After spinning down cells (1500 rpm, 5 min), 100 μl of supernatant was harvested into micronic tubes, and counted in gamma counter. The percentage specific lysis was calculated as follows: […]

[4] = test system: tumor cells obtained from different MM patients; experiment: Complement-dependent cytotoxicity of tumor cells from MM patients; type: cell-based, human; conditions: in words
[5] = test system: Daudi-luc tumor cells; experiment: In vivo SCID-luciferase experiments; set-up: species or system SCID mice
Description: In this model tumor cells are transfected with firefly luciferase. Upon administration of luciferin (Molecular Probes, Leiden, The Netherlands) to the mice the labeled cells can be detected in vivo by bioluminescent imaging using a highly sensitive CCD camera, cf. Wetterwald et al., American Journal of Pathology 160(3), 1143-1153 (2002).
Daudi cells were transfected with gWIZ luciferase from Gene Therapy Systems (San Diego, CA) and cultured in RPMI with 10% FCS, Pen/Strep, Sodium Pyruvate and 1 μg/ml puromycin (Sigma). Cells were analysed for luciferase expression (expressed in RLU/1×10^5 cells) in a luminometer and for CD38 expression by FACS. 2.5×10^6 luciferase-transfected Daudi cells/mouse were injected i.v. into SCID mice. Mice were treated with -003, -005, isotype control antibody (HuMab-KLH) or rituximab (anti-CD20 antibody). Antibodies were injected intraperitoneally. Four treatment settings were used (see Table 4). In the preventive setting, antibody (100 μg/mouse) and cells were administered simultaneously. In therapeutic setting I, antibody (300 μg/mouse) was administered 7 days after administration of cells. In therapeutic setting II, antibody (10 μg/mouse) was administered 14 days after administration of cells. In therapeutic setting III, antibody (100 μg/mouse) was administered 7 days after administration of cells. For imaging, mice were anesthetized by i.p. injection of a mixture of ketamine/xylazine/atropine. Synthetic D-Luciferin (sodium salt, Molecular Probes) was given i.p. at a dose of 25 mg/ml. Mice were then placed in a light tight box and after 3 min, imaging was started using a VersArray 1300B liquid nitrogen cooled CCD detector (Roper Scientific). Photons emitted from the luciferase were counted over an exposure period of 5 min. Under illumination black and white images were made for reference. MetaVue software (Universal Imaging Corp) was used for data collection and image analysis. Statistical significance of differences between groups was established using one-way analysis of variance with a Newman-Keuls post test using GraphPad PRISM version 3.02 (Graphpad Software Inc).

## -005: human monoclonal IgG1 anti-CD38 antibody, VL region SEQ ID No:12 and VH region SEQ ID No:17
[1]; binding, flow cytometry
  EC50 CHO-CD38: 0.23 µg/mL
[1]
  binding to CHO-CD38 cells: bind
[2]; binding, flow cytometry
  EC50 Daudi-luc: 0.09 µg/mL
[2]
  binding to Daudi-luc cells: bind
[3]
  ADCC of fresh multiple myeloma tumor cells: ADCC is induced
[4]
  CDC-mediated lysis of MM patient tumor cells: CDC-mediated lysis is observed
[5]; preventive setting, 100 μg/mouse, day 0, i.p.
  inhibition of growth of tumor cells: inhibit growth of tumor cells
[5]; therapeutic setting I, 300 μg/mouse, day 7, i.p.
  inhibition of growth of tumor cells: inhibit growth of tumor cells

B1: -024: human monoclonal IgG1 anti-CD38 antibody, VL region SEQ ID No:22 and VH region SEQ ID No:27 (antibody, listed as Homo sapiens, V domains shown)
VH: EVQLVQSGAEVKKPGESLKISCKGSGYSFSNYWIGWVRQMPGKGLEWMGIIYPHDSDARYSPSFQGQVTFSADKSISTAYLQWSSLKASDTAMYYCARHVGWGSRYWYFDLWGRGTLVTVSS
VL: EIVLTQSPATLSLSPGERATLSCRASQSVSSYLAWYQQKPGQAPGLLIYDASNRASGIPARFSGSGSGTDFTLTISSLEPEDFAVYYCQQRSNWPLTFGGGTKVEIK
[1]
  binding to CHO-CD38 cells: bind
[2]
  binding to Daudi-luc cells: bind
[3]
  ADCC of fresh multiple myeloma tumor cells: ADCC is induced
[4]
  CDC-mediated lysis of MM patient tumor cells: induced lysis
[5]; therapeutic setting III, 100 μg/mouse, day 7, i.p.
  inhibition of Daudi-luc tumor cell growth: clear inhibition
